Measured values reported in PMC4655273, “Schwann Cell Expressed Nogo-B Modulates Axonal Branching of Adult Sensory Neurons Through the Nogo-B Receptor NgBR” (Frontiers in Cellular Neuroscience, 2015).

Target: T1, Nogo-B (mouse (endogenous in primary Schwann …, UniProt Q99P72-5 1-356))
T1 sequence (looked up): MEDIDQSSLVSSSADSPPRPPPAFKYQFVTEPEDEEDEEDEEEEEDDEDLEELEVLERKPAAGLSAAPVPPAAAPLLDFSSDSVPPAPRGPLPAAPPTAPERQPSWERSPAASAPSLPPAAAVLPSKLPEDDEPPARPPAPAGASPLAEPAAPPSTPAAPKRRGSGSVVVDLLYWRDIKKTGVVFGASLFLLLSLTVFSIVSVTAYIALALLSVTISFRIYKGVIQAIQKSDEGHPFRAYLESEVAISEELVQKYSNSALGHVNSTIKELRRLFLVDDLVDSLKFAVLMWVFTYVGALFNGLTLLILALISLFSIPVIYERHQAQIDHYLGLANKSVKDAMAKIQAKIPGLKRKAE
Assay: cell-based or functional assay

- total neurite length (TNL) of adult wildtype sensory neurons on wildtype Schwann cells with recombinant NgBR-Ecto at 1 μg/ml, relative to control (set to 1.0): 0.74 relative to the control levels
B1: Nogo-B receptor NgBR (receptor, mouse (endogenous in sensory neurons), UniProt Q99LJ8 1-297, looked up)
chain: MTGLYELVWRVLHALLCLHLTLTSWLRVRFGTWNWIWRRCCRAASAAVLAPLGFTLRKPRAVGRNRRHHRHPHGGPGPGPGPAATHPRLRWRADVRSLQKLPVHMGLLVTEEVQEPSFSDIASLVVWCMAVGISYISVYDHQGIFKRNNSRLMDEILKQQQELLGQDCSKYSAEFANSNDKDDQDLNCPSAVKVLSPEDGKADIVRAAQDFCQLVAQQQRKPTDLDVDLLGSLLSSHGFPDPDLVLKFGPVDSTLGFLPWQIRLTEIVSLPSHLNISYEDFFSALRQYAACEQRLGK
